Drawing on publication PMC3402150, “An endogenous factor enhances ferulic acid decarboxylation catalyzed by phenolic acid decarboxylase from Candida guilliermondii” (AMB Express, 2012), this text covers Km and kcat for one substance.

The series relates to COc1cc(/C=C/C(=O)O)ccc1O. Description: purified protein. The conditions noted are these: control without ultrafiltrate activator, general assay 0.1 M sodium phosphate pH 6.0, 25°C.

In the case of “CgPAD (phenolic acid decarboxylase) (Meyerozyma guilliermondii)”, the Km amounted to 5.31 mM and the kcat is 89.7 s⁻¹.

The Km is the concentration of substrate that gives half-maximal velocity. For orientation: kcat means the maximal rate divided by the concentration of active sites.
